# According to PMC11617674, “The activity of the ribonucleotide monophosphatase UmpH is controlled by interaction with the GlnK signaling protein in Escherichia coli” (The Journal of Biological Chemistry, 2024):
# B1: UmpH (Escherichia coli K-12) (protein)
# chain: MTIKNVICDIDGVLMHDNVAVPGAAEFLHGIMDKGLPLVLLTNYPSQTGQDLANRFATAGVDVPDSVFYTSAMATADFLRRQEGKKAYVVGEGALIHELYKAGFTITDVNPDFVIVGETRSYNWDMMHKAAYFVANGARFIATNPDTHGRGFYPACGALCAGIEKISGRKPFYVGKPSPWIIRAALNKMQAHSEETVIVGDNLRTDILAGFQAGLETILVLSGVSSLDDIDSMPFRPSWIYPSVAEIDVI
# notes: untagged; synthetic umpH gene in pET29a, expressed in E. coli BL21 (λDE3); band approximately 30 kDa
# Substrate: O=c1ccn([C@@H]2O[C@H](COP(=O)(O)O)[C@@H](O)[C@H]2O)c(=O)[nH]1
# Assay: continuous phosphate release, EnzChek (MESG/purine nucleoside phosphorylase), A360, Michaelis-Menten fit
# Assay type: biochemical, Escherichia coli
# Conditions: no GlnK, no effectors, 20 mM Hepes pH 7.4, 50 mM KCl, 5 mM MgCl2, 2 mM NAG, 2 mM DTT, 25 °C
protein,measurement,value
B1,Km,278 ± 27 µM
